Measurements published in article PMC2805098 (Biochemistry, 2009).
Read-outs that look alike come from different tables or passages of the source.

B1: Phe223Leu (protein, UniProt P0AEZ1 1-296, looked up, variant F223L)
5,10-methylenetetrahydrofolate …: MSFFHASQRDALNQSLAEVQGQINVSFEFFPPRTSEMEQTLWNSIDRLSSLKPKFVSVTYGANSGERDRTHSIIKGIKDRTGLEAAPHLTCIDATPDELRTIARDYWNNGIRHIVALRGDLPPGSGKPEMYASDLVTLLKEVADFDISVAAYPEVHPEAKSAQADLLNLKRKVDAGANRAITQFFFDVESYLRFRDRCVSAGIDVEIIPGILPVSNFKQAKKLADMTNVRIPAWMAQMFDGLDDDAETRKLVGANIAMDMVKILSREGVKDFHFYTLNRAEMSYAICHTLGVRPGL
B2: Phe223Ala: Phe223Ala mutant of histidine-tagged E. coli methylenetetrahydrofolate reductase (protein, UniProt P0AEZ1 1-296, looked up, variant F223A)
5,10-methylenetetrahydrofolate …: MSFFHASQRDALNQSLAEVQGQINVSFEFFPPRTSEMEQTLWNSIDRLSSLKPKFVSVTYGANSGERDRTHSIIKGIKDRTGLEAAPHLTCIDATPDELRTIARDYWNNGIRHIVALRGDLPPGSGKPEMYASDLVTLLKEVADFDISVAAYPEVHPEAKSAQADLLNLKRKVDAGANRAITQFFFDVESYLRFRDRCVSAGIDVEIIPGILPVSNFKQAKKAADMTNVRIPAWMAQMFDGLDDDAETRKLVGANIAMDMVKILSREGVKDFHFYTLNRAEMSYAICHTLGVRPGL
modifications: histidine tag
B3: Wild-type: wild-type histidine-tagged E. coli methylenetetrahydrofolate reductase (protein, UniProt P0AEZ1 1-296, looked up)
5,10-methylenetetrahydrofolate …: MSFFHASQRDALNQSLAEVQGQINVSFEFFPPRTSEMEQTLWNSIDRLSSLKPKFVSVTYGANSGERDRTHSIIKGIKDRTGLEAAPHLTCIDATPDELRTIARDYWNNGIRHIVALRGDLPPGSGKPEMYASDLVTLLKEVADFDISVAAYPEVHPEAKSAQADLLNLKRKVDAGANRAITQFFFDVESYLRFRDRCVSAGIDVEIIPGILPVSNFKQAKKFADMTNVRIPAWMAQMFDGLDDDAETRKLVGANIAMDMVKILSREGVKDFHFYTLNRAEMSYAICHTLGVRPGL
modifications: histidine tag

Tests used:
[1] = Midpoint potential determination, xanthine/xanthine oxidase reducing system; assay type: physicochemical, Escherichia coli; conditions: two-electron, pH 7.2, 25 °C, reference dye phenosafranine
[2] = pH 7.2, 25 °C; cited from earlier work

| Molecule | Midpoint Potential [1] | Midpoint Potential [2] |
| --- | --- | --- |
| B1 | −240 ± 3 mV | – |
| B2 | −236 ± 3 mV | – |
| B3 | – | −237 ± 4 mV |
